From patent publication US20100068806A1, “NOVEL METHODS AND REAGENTS DIRECTED TO PRODUCTION OF CELLS” (SUOMEN PUNAINEN RISTI, VERIPALVELU, priority 2007, published 2010)
Entries after “also recorded” stand apart in the source; their conditions may differ.

Tests used:
hESC [1] = assay: Fluorescein-labelled lectin staining of hESC colonies on mouse feeder layers; format: binding, human; set-up: key to lectin ligand profile, hESC: + present in cell surface; − not present in cell surface; conditions: for inhibition of lectin binding to hESC by carbohydrate: MAA or PSA binding
Experimental: (§1) Lectin staining. Fluorescein-labeled lectins were from EY Laboratories (USA) and the stainings were performed essentially after manufacturer's instructions. The specificity of the staining was controlled in parallel experiments by inhibiting lectin binding with specific oligo- and monosaccharides.
(§2) From a practical perspective stem cell research would be best served by the identification of target structures on cell surface. To investigate whether individual glycan structures we had identified would be accessible to reagents targeting them at the cell surface we performed lectin labelling of two candidate structure types. Lectins are proteins that recognize glycans with specificity to certain glycan structures also in hESC (Venable et al., 2005). To study the localization of glycan components in hESC, stem cell colonies grown on mouse feeder cell layers were labeled in vitro by fluorescein-labelled lectins (FIG. 2). […] Such glycans would thus be available for recognition by more specific glycan-recognizing reagents such as antibodies. In contrast, the cell surfaces were not labelled by Pisum sativum agglutinin (PSA) that recognizes α-mannosylated glycans (FIG. 2b).
The glycome profile data was used to design glycan-specific labeling reagents for hESC. The most interesting glycan types were chosen to study their expression profiles by lectin histochemistry as exemplified in FIG. 5 for the lectins that recognize either α2,3-sialylated (MAA-lectin, FIG. 5A.) binding to the hESC cells or α-mannosylated glycans (PSA-lectin, FIG. 5B.) binding to the surfaces of feeder cells (MEF). The binding of the lectin reagents was inhibited by specific carbohydrate inhibitors, sialylα2-lactose and mannose, respectively (FIG. 5C. and 5D.).

[2] = system: hESC lines FES29 and FES30; assay: hESC culture on lectin-coated plates in mEF-conditioned media; format: cell-based, human; set-up: key to Growth: +++: cells attach and can grow; cells attach and can grow but less cells/slower growth than +++; +: only few cells attach, one split; −: no cells after p1, cannot be splitted; #: less cells attach and slower early growth; conditions: for Growth: culture experiment in mEF-conditioned media; for growth of hESC on coated plates: mEF-conditioned media
From the text: FES 30 hESC line was used. hESCs were transferred from mEF to Matrigel™ and cultured according to the protocol found on the Geron Corporation website at: http://www.geron.com/showpage.asp?code=prodstprot
All passages were done using collagenase. The passages were also done using PBS without collagenase treatment.
The cells were transferred to ECA-coated 12-well plates (Corning) and cultured in mEF-conditioned media for 5-11 days, whereafter they were divided 1:2 or 3:4. RNA samples were extracted from a cell sample every second or third passage and analyzed for expression of stem cell and differentiation markers (FIG. 31).
The ECA (EY Laboratories, USA; L-5901-5) coating was performed as follows for 12 well plates. ECA lectin was stored frozen as stock solution of 1 mg/ml. It was thawed on ice and diluted as 100 μl lectin stock+600 μl PBS, sterile filtered (Millex-GV, SLGV 013 SL, 0.22 μm) in laminar hood. This solution, i.e. 100 μg/700 μl PBS solution was applied to each well and incubated overnight at +4 C. On the following day lectin solution was removed and wells were washed with 3×1 ml of sterile PBS.
(§3) hESC were cultured at least two passages feeder-free on Matrigel (BD Biosciences, Bedford, Mass., USA) before plating on lectin. Matrigel-culturing was continued side by side lectin-culturing as comparison. Cells were cultured during the whole experiment in standard Knockout™ DMEM media with 20% Knockout™ Serum Replacement and 8 ng/ml of recombinant basicFGF (all from Gibco/Invitrogen, Paisley, UK; Mikkola M. et al. BMC Dev. Biol. 6:40, 2006) conditioned on mouse feeder cells for 24 h. Cells were detached with collagenase IV while splitting.
(§4) Lectins were diluted in PBS and sterile filtered before applying on Nunclon cell culture plates (Nunc, Roskilde, Denmark). The amount of lectin was 27 μg/cm^2 and plates were incubated over night at +4° C. Before splitting cells on lectin wells were washed three times with PBS.

[3] = system: SSEA-4 enriched human embryonic stem cells (hESC); conditions: Venable et al. 2005; cited from earlier work
hESC [4] = assay: Short (5 days) hESC culture on ECA types and conjugates; format: cell-based, human; set-up: key: +++: many cells attached on day 5; ++: scattered cells on day 5; +: few cells left on day 5; −: no attached cells after day 5; conditions: day 5
hESC (FES29) = assay: FACS of Tra-1-60 and SSEA-3 in hESC cultured on lectins or Matrigel; format: cell-based, human
Experimental: as §3, §4

[5] = system: Human Bone marrow-derived mesenchymal stem cells (MSC); assay: Flow cytometry of CD105, CD45, CD73, HLA-DR in MSC grown on lectins; format: cell-based; conditions: MSC grown on lectin
Experimental: Briefly, bone marrow obtained during orthopedic surgery was cultured in Minimum Essential Alpha-Medium (α-MEM), supplemented with 20 mM HEPES, 10% FCS, 1× penicillin-streptomycin and 2 mM L-glutamine (all from Gibco). After a cell attachment period of 2 days the cells were washed with Ca2+ and Mg2+ free PBS (Gibco), and subcultured at a density of 2000-3000 cells/cm2 in the same media on 24-well chamber slides coated with lectin molecules. Cells were crown at 37° C. with 5% CO2, fresh media was changed twice a week until near confluence. MSCs were cultured on lectin coated well plates for five passages. MSC passages 5-10 were used in the experiment.
Proliferating MSCs in passage 5 were grown on different lectins for 5 days. Cells were washed with PBS and harvested into single cell suspensions by Versene solution. Detached cells were centrifuged at 600×g for five minutes at room temperature. Cell pellet was washed twice with 0.3% BSA-PBS, centrifuged at 600×g and resuspended in 0.3% BSA-PBS. Cells were placed in conical tubes in aliquots of 50 000 cells each. Cell aliquots were incubated with antibodies in dilution of 2 μl/10^5 cells for 30 minutes at +4° C. in the dark. After incubation cells were washed with 0.3% BSA-PBS, centrifuged and resuspended in 0.3% BSA-PBS.
Unlabeled cells and cells grown on plastic were used as controls. Antibody binding was detected by flow cytometry (FACSAria, Becton Dickinson). Data analysis was made with FACSDiva™ Flow Cytometry Software Version 5.02.

RUNX2 = assay: Quantitative RT-PCR of RUNX2 in MSC grown on lectins; format: cell-based, human
From the text: (§5) Total cellular RNA from the BM derived mesenchymal stem cells grown for five passages on selected lectins was extracted by using RNeasy miniprep-kit (Qiagen, Chatsworth, Calif.) according to the manufacturers's instructions. RNA was then reverse transcribed to cDNA with High Capacity cDNA Reverse Transcription reagents according to manufacturers instructions (Applied Biosystems) and used as a template in TaqMan® PCR reaction. TaqMan® PCR reaction was used to estimate the quantitative levels of stem cell differentiation markers. TaqMan® PCR reaction performed in standard conditions using TaqMan® Universal Gene Expression Master Mix (Applied Biosystems) and Pre-developed Inventored Gene Expression Assays for FABP4 (Hs00609791_m1) and RUNX2 (Hs00231692_m1) (Applied Biosystems).
(§6) Real time quantitative PCR reactions were performed with the ABI PRISM 7000 Sequence Detector System (Applied Biosystem) in standard conditions. PCR amplifications were performed in a total volume of 50 μl, containing 1 μl cDNA sample. TaqMan® Universal Gene Expression Master Mix (Applied Biosystems) was used in all experiments. Pre-developed Inventored Gene Expression Assays for FABP4 (Hs00609791_m1) and RUNX2 (Hs00231692_m1) (Applied Biosystems) were used to estimate the quantitative levels of stem cell differentiation markers. Pre-developed TaqMan® assay reagents for endogenous control human TATA-box binding gene labeled with VIC reporter dye (Hs 999999_m19) was used for amplification of control gene.
(§7) PCR was started with 2 min at 50° C. and the initial 10 min denaturing temperature was 94° C., followed by a total of 40 cycles of 15 s of denaturing and 1 min of annealing and elongation at 60° C.

FABP4 = assay: Quantitative RT-PCR of FABP4 in MSC grown on lectins; format: cell-based, human
From the text: as §5, §6, §7

mouse feeder cells (MEF) = assay: Fluorescein-labelled lectin staining of mouse feeder cells in hESC culture; format: binding; set-up: key: + present in cell surface; − not present in cell surface; conditions: MEF cell surface
Experimental: as §1, §2
The glycome profile data was used to design glycan-specific labeling reagents for hESC. […]

[6] = system: bone marrow derived mesenchymal stem cells (BM MSC); assay: FITC-lectin staining of fixed BM MSC, fluorescence microscopy; format: binding, human
mouse feeder cell (mEF) = assay: FITC-lectin and antibody labelling of mouse feeder cells, fluorescence microscopy; format: binding; conditions: fixed cells
[7] = system: human embryonic stem cell (hESC) lines FES 22 and FES 30; assay: FITC-lectin and antibody labelling of hESC, fluorescence microscopy; format: binding
[8] = system: cord blood mononuclear cell (CB MNC); assay: FACS analysis of FITC-lectin binding to cord blood mononuclear cells; set-up: species or system human; conditions: seven CB MNC preparations
[9] = start point (UEA-1/DSA/Galectin 1 experiment)
[10] = MSC grown five passages on lectin

With CC(=O)N[C@H]1[C@H]([C@H](O)[C@H](O)CO)O[C@@](O[C@H]2[C@@H](O)[C@@H](CO)O[C@@H](O[C@H]3[C@H](O)[C@@H](O)C(O)O[C@@H]3CO)[C@@H]2O)(C(=O)O)C[C@@H]1O (some centres unmarked) [3′-sialyllactose] the “inhibition of lectin binding to hESC by carbohydrate” value (“inhibition of lectin binding to hESC” for short) (hESC [1]) was “blocks MAA binding” and the “inhibition of lectin binding to hESC” value (hESC [1]; listed as α3′-sialyllactose) was “inhibited”.

In the case of O=C[C@@H](O)[C@@H](O)[C@H](O)[C@H](O)CO [D-mannose], the “inhibition of lectin binding to hESC” value (hESC [1]) is reported as “inhibited; also recorded: blocks PSA binding”.

With “Galectin-1 in solution: Galectin-1 added in solution, not immobilized” the Growth [2] was “−” and the “growth of hESC on coated plates” value [2] was “could not support the cell growth”.

In the case of “PHA-E: Phaseolus vulgaris lectin recognizing N-glycan core epitope (bisecting GlcNAc)”, the Growth [2] is given as “+++#”, the “growth of hESC on coated plates” value [2] is given as “weak” and the “lectin binding to SSEA-4 enriched hESC” value [3] is given as “partially bind to hESC”.

For PHA-L: Phaseolus vulgaris lectin, the “lectin binding to SSEA-4 enriched hESC” value [3] is listed as “partially bind to hESC”.

With “rGal-1: rGal-1, presumably recombinant galectin-1, coating in short hESC culture” the “short (5 days) culting” value (hESC [4]) was “−”.

B1: Galectin-1: bovine Galectin-1, N-acetyllactosamine binding lectin (protein, UniProt P11116 2-135, looked up)
Galectin-1: ACGLVASNLNLKPGECLRVRGEVAADAKSFLLNLGKDDNNLCLHFNPRFNAHGDVNTIVCNSKDAGAWGAEQRESAFPFQPGSVVEVCISFNQTDLTIKLPDGYEFKFPNRLNLEAINYLSAGGDFKIKCVAFE
In the case of B1, the “expression of SSEA-3” value (hESC (FES29); FES29, after 7 passages) is reported as 32.3%, the “expression of Tra-1-60” value (hESC (FES29); FES29, after 7 passages) is reported as 21.6% and the SSEA-3 (hESC (FES29); p7) is reported as 32.3. The Tra-1-60 (hESC (FES29); p7) was 21.6, the SSEA-3 (hESC (FES29); [9]) was 89.2 and the Tra-1-60 (hESC (FES29); [9]) was 69.6. For the same molecule, the “CD 45” value [5] was “neg”, the CD73 [5] was “pos” and the CD105 [5] was “pos”. The HLA-DR [5] was 23.8%, the “RUNX- Endogenous control gene avarage Δct” value (RUNX2; [10]) was 2.76 and the “Expression relative to plastic 2e − ΔΔCt” value (RUNX2; RUNX) was 0.31. For the same molecule, the “ΔCt − Δctplastic relative ΔΔCt” value (RUNX2; RUNX, relative to plastic) was 1.87, the “passages hESC cultured on lectin” value ([2]; FES29) was 7 passages and the Growth [2] was “+++”. For the same molecule, the “growth of hESC on coated plates” value [2] was “also effective”, the “Expression relative to plastic 2e − ΔΔCt” value (FABP4; FABP) was 12.85 and the “ΔCt − Δctplastic relative ΔΔCt” value (FABP4; FABP, relative to plastic) was −1.86. For the same molecule, the “FABP - Endogenous control gene avarage Δct” value (FABP4; [10]) was 5.24.

B2: PNA: peanut lectin, Gal/GalNAc structures (protein, UniProt P02872 24-273, looked up)
Galactose-binding lectin: AETVSFNFNSFSEGNPAINFQGDVTVLSNGNIQLTNLNKVNSVGRVLYAMPVRIWSSATGNVASFLTSFSFEMKDIKDYDPADGIIFFIAPEDTQIPAGSIGGGTLGVSDTKGAGHFVGVEFDTYSNSEYNDPPTDHVGIDVNSVDSVKTVPWNSVSGAVVKVTVIYDSSTKTLSVAVTNDNGDITTIAQVVDLKAKLPERVKFGFSASGSLGGRQIHLIRSWSFTSTLITTTRRSIDNNEKKIMNMASA
With B2 the “lectin ligand profile, MEF” value (mouse feeder cells (MEF)) was “−”, the “lectin binding / labelling of BM MSC” value ([6]; FITC-labelled lectin, cell surface of cultured BM MSC) was “less intense labelling” and the “effect of sialidase treatment of the cells on lectin binding” value ([6]; sialidase treatment before lectin binding) was “also increased by sialidase treatment”. The “lectin ligand profile, hESC” value (hESC [1]; hESC cell surface) was “+”, the “labelling of mEF” value (mouse feeder cell (mEF)) was “absence of specific binding” and the “labelling of hESC” value ([7]; fixed cells on mouse feeder layer) was “Abundant labelling”. For the same molecule, the “specific binding, hESC versus mEF” value ([7]; hESC compared with mEF) was “bound specifically to hESC but not to mEF”, the “lectin binding to CB MNC” value [8] was “variable binding between CB samples” and the “lectin binding to SSEA-4 enriched hESC” value [3] was “high binding percentage”.
